Patent publication US20140206607A1 (INDIANA UNIVERSITY RESEARCH AND TECHNOLOGY, published 2014)
Numbered stars: 1 amine (or outer) side, 2 acyl side, 3 side chain; on linkers, the order of the positions; unused ones are H or OH. Square brackets hold non-standard residues; d marks the D form. Side chains are listed from the residue outwards. Ends that are not written are not given here. * marks the point of attachment. γGlu = O=C(O)[C@H](CCC(=O)[*:2])N[*:1]; Desaminohistidyl = O=C(CCc1c[nH]cn1)*; Palmitoyl = CCCCCCCCCCCCCCCC(=O)*; Aib = CC(C)(N)C(=O)O

T1: GIP receptor (UniProt P48546 22-466)
T1 sequence (looked up): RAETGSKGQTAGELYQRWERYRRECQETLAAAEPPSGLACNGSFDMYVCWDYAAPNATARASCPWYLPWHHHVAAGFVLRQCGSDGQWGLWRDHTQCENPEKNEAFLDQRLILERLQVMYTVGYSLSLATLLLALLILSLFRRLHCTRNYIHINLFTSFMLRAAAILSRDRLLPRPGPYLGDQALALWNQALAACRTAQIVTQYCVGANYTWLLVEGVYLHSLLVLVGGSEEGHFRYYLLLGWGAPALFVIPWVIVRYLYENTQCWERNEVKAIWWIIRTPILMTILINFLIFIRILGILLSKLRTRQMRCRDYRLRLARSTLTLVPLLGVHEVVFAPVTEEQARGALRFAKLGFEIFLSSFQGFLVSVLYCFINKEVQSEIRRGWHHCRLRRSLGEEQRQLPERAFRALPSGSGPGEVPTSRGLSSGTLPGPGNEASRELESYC

B1: peptide of SEQ ID NO: 22 (peptide)
peptide: H[Aib]QGTFTSDK([γGlu-γGlu-Palmitoyl])SKYLD[Aib]RAAQDFVQWLMDGRG-NH2
modifications: N-terminus assumed
SMILES: CCCCCCCCCCCCCCCC(=O)N[C@@H](CCC(=O)N[C@@H](CCC(=O)NCCCC[C@H](NC(=O)[C@H](CC(=O)O)NC(=O)[C@H](CO)NC(=O)[C@@H](NC(=O)[C@H](Cc1ccccc1)NC(=O)[C@@H](NC(=O)CNC(=O)[C@H](CCC(N)=O)NC(=O)C(C)(C)NC(=O)[C@@H](N)Cc1c[nH]cn1)[C@@H](C)O)[C@@H](C)O)C(=O)N[C@@H](CO)C(=O)N[C@@H](CCCCN)C(=O)N[C@@H](Cc1ccc(O)cc1)C(=O)N[C@@H](CC(C)C)C(=O)N[C@@H](CC(=O)O)C(=O)NC(C)(C)C(=O)N[C@@H](CCCNC(=N)N)C(=O)N[C@@H](C)C(=O)N[C@@H](C)C(=O)N[C@@H](CCC(N)=O)C(=O)N[C@@H](CC(=O)O)C(=O)N[C@@H](Cc1ccccc1)C(=O)N[C@H](C(=O)N[C@@H](CCC(N)=O)C(=O)N[C@@H](Cc1c[nH]c2ccccc12)C(=O)N[C@@H](CC(C)C)C(=O)N[C@@H](CCSC)C(=O)N[C@@H](CC(=O)O)C(=O)NCC(=O)N[C@@H](CCCNC(=N)N)C(=O)NCC(N)=O)C(C)C)C(=O)O)C(=O)O
B2: peptide of SEQ ID NO: 21 (peptide)
peptide: Ac-H[dS]QGTFTSDK([γGlu-Palmitoyl])SKYLDERAAQDFVQWLLDT-NH2
SMILES: CCCCCCCCCCCCCCCC(=O)N[C@@H](CCC(=O)NCCCC[C@H](NC(=O)[C@H](CC(=O)O)NC(=O)[C@H](CO)NC(=O)[C@@H](NC(=O)[C@H](Cc1ccccc1)NC(=O)[C@@H](NC(=O)CNC(=O)[C@H](CCC(N)=O)NC(=O)[C@@H](CO)NC(=O)[C@H](Cc1c[nH]cn1)NC(C)=O)[C@@H](C)O)[C@@H](C)O)C(=O)N[C@@H](CO)C(=O)N[C@@H](CCCCN)C(=O)N[C@@H](Cc1ccc(O)cc1)C(=O)N[C@@H](CC(C)C)C(=O)N[C@@H](CC(=O)O)C(=O)N[C@@H](CCC(=O)O)C(=O)N[C@@H](CCCNC(=N)N)C(=O)N[C@@H](C)C(=O)N[C@@H](C)C(=O)N[C@@H](CCC(N)=O)C(=O)N[C@@H](CC(=O)O)C(=O)N[C@@H](Cc1ccccc1)C(=O)N[C@H](C(=O)N[C@@H](CCC(N)=O)C(=O)N[C@@H](Cc1c[nH]c2ccccc12)C(=O)N[C@@H](CC(C)C)C(=O)N[C@@H](CC(C)C)C(=O)N[C@@H](CC(=O)O)C(=O)N[C@H](C(N)=O)[C@@H](C)O)C(C)C)C(=O)O
B3: peptide of SEQ ID NO: 20 (peptide)
peptide: [Desaminohistidyl][dS]QGTFTSDK([γGlu-Palmitoyl])SKYLDERAAQDFVQWLLDT-NH2
SMILES: CCCCCCCCCCCCCCCC(=O)N[C@@H](CCC(=O)NCCCC[C@H](NC(=O)[C@H](CC(=O)O)NC(=O)[C@H](CO)NC(=O)[C@@H](NC(=O)[C@H](Cc1ccccc1)NC(=O)[C@@H](NC(=O)CNC(=O)[C@H](CCC(N)=O)NC(=O)[C@@H](CO)NC(=O)CCc1c[nH]cn1)[C@@H](C)O)[C@@H](C)O)C(=O)N[C@@H](CO)C(=O)N[C@@H](CCCCN)C(=O)N[C@@H](Cc1ccc(O)cc1)C(=O)N[C@@H](CC(C)C)C(=O)N[C@@H](CC(=O)O)C(=O)N[C@@H](CCC(=O)O)C(=O)N[C@@H](CCCNC(=N)N)C(=O)N[C@@H](C)C(=O)N[C@@H](C)C(=O)N[C@@H](CCC(N)=O)C(=O)N[C@@H](CC(=O)O)C(=O)N[C@@H](Cc1ccccc1)C(=O)N[C@H](C(=O)N[C@@H](CCC(N)=O)C(=O)N[C@@H](Cc1c[nH]c2ccccc12)C(=O)N[C@@H](CC(C)C)C(=O)N[C@@H](CC(C)C)C(=O)N[C@@H](CC(=O)O)C(=O)N[C@H](C(N)=O)[C@@H](C)O)C(C)C)C(=O)O

target: glucagon receptor (UniProt P47871 26-477, limits assumed); assay: cell-based or functional assay
Sequence (P47871 26-477 limits assumed): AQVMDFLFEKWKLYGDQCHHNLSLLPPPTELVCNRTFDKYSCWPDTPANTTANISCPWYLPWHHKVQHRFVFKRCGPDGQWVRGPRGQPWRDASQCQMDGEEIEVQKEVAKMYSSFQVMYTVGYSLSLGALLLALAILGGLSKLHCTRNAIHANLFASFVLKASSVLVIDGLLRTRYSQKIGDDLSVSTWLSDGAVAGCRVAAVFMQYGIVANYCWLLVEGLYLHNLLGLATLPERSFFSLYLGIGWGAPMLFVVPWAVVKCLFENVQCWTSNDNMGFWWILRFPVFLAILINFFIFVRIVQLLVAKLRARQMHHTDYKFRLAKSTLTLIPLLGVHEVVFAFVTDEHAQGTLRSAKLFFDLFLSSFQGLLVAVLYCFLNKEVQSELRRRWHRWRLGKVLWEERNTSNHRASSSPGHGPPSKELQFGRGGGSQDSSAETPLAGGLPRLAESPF

B1 and B2 are the same in “EC50 (nM) at glucagon receptor” value: 0.005 nM for the first, 0.005 nM for the second.

For B3, the “EC50 (nM) at glucagon receptor” value was 0.006 nM.

target: GLP-1 receptor (UniProt P43220 24-463, limits assumed); assay: cell-based or functional assay

Going from B1 to B2, the “EC50 (nM) at GLP-1 receptor” value rises from 0.002 nM to 0.009 nM (4.5-fold).

For B3, the “EC50 (nM) at GLP-1 receptor” value was 0.004 nM.

target: T1, GIP receptor; assay: cell-based or functional assay

Going from B1 to B2, the “EC50 (nM) at GIP receptor” value rises from 2.37 nM to 4.5 nM (1.9-fold).

B3 was tested, and the “EC50 (nM) at GIP receptor” value was 1.38 nM.
